From the supplement of paper PMC7125110
± gives the standard error. For part of these data: Variants at the floor of the assay were thinned out.

B1: glmS ribozyme (parent)
chain: AUAAAAGCGCCAGAACUACAGAAAUGUAGUUGACGAGGAGGAGGUUUAUCGAAUUUUCGGCGGAUGCCUCCAAA

Assays:
Conditions in all cases: with glucosamine-6-phosphate
glucosamine-6-phosphate [1] = variants of: B1; test: kcat; higher = faster cleavage; RNA array
Method in brief: (§1)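 The measurements used barcoded ribozyme variants on sequenced MiSeq chips, transcribed in situ by E. coli RNA polymerase and tracked at 37 °C with a hybridised Cy3 probe. Glucosamine-6-phosphate, 40 μM to 10 mM in HEPES/KCl/Mg(OAc)2 buffer, was flowed in while tiles were imaged over ~14 h. Baseline-normalised signals, also normalised to non-cleaving reference variants, gave per-tile medians that were fit to one- or two-exponential decays for kobs. kcat and KM resulted from weighted Michaelis–Menten fits across concentrations.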

glucosamine-6-phosphate [2] = variants of: B1; test: self-cleavage kobs at 40 uM GlcN6P; higher = faster cleavage; RNA array
Method in brief: as §1

glucosamine-6-phosphate [3] = variants of: B1; test: self-cleavage kobs at 160 uM GlcN6P; higher = faster cleavage; RNA array
Method in brief: as §1

glucosamine-6-phosphate [4] = variants of: B1; test: self-cleavage kobs at 640 uM GlcN6P; higher = faster cleavage; RNA array
Method in brief: as §1

glucosamine-6-phosphate [5] = variants of: B1; test: self-cleavage kobs at 2500 uM GlcN6P; higher = faster cleavage; RNA array
Method in brief: as §1

glucosamine-6-phosphate [6] = variants of: B1; test: self-cleavage kobs at 10000 uM GlcN6P; higher = faster cleavage; RNA array
Method in brief: as §1

glucosamine-6-phosphate [7] = variants of: B1; test: KM; higher = weaker cofactor use; RNA array
Method in brief: as §1

AUAAAAGCGCCAGAACUACAGAAAUGUAGUUGACGAGGAGGAGGUUGAUCGAAUUUUCGGCGGAUGCCGCCAAA
kcat (glucosamine-6-phosphate [1]): 5.3e-05 ± 8.9e-06 s⁻¹
self-cleavage kobs at 40 uM GlcN6P (glucosamine-6-phosphate [2]): 4.11e-05 ± 9e-06 s⁻¹
self-cleavage kobs at 160 uM GlcN6P (glucosamine-6-phosphate [3]): 5.87e-05 ± 1.3e-05 s⁻¹
self-cleavage kobs at 640 uM GlcN6P (glucosamine-6-phosphate [4]): 7.19e-05 ± 9.1e-06 s⁻¹
self-cleavage kobs at 2500 uM GlcN6P (glucosamine-6-phosphate [5]): 7.13e-05 ± 9.6e-06 s⁻¹
self-cleavage kobs at 10000 uM GlcN6P (glucosamine-6-phosphate [6]): 4.09e-05 ± 5.2e-06 s⁻¹

AUAAAAGCGCCAGAACUACAGAAAUGUAGUUGACGAGGAGGAGGUUUCUCGAGUUUUCGGCGGAUGCCUCCAAA
kcat (glucosamine-6-phosphate [1]): 0.000334 ± 1.5e-05 s⁻¹
KM (glucosamine-6-phosphate [7]): 2130 ± 190 µM
self-cleavage kobs at 640 uM GlcN6P (glucosamine-6-phosphate [4]): 7.49e-05 ± 1.2e-05 s⁻¹
self-cleavage kobs at 2500 uM GlcN6P (glucosamine-6-phosphate [5]): 0.000187 ± 2.9e-05 s⁻¹
self-cleavage kobs at 10000 uM GlcN6P (glucosamine-6-phosphate [6]): 0.000272 ± 3.6e-05 s⁻¹

AUAAAAGCGCCAGAACUACAGAAAUGUAGUUGACGAGGAGGAGGUUGAUGGAAUUUUCGGCGGAUGCUUCCAAA
kcat (glucosamine-6-phosphate [1]): 6.02e-05 ± 2e-05 s⁻¹
self-cleavage kobs at 160 uM GlcN6P (glucosamine-6-phosphate [3]): 7.17e-05 ± 9.5e-06 s⁻¹
self-cleavage kobs at 2500 uM GlcN6P (glucosamine-6-phosphate [5]): 7.59e-05 ± 1.6e-05 s⁻¹
self-cleavage kobs at 10000 uM GlcN6P (glucosamine-6-phosphate [6]): 3.03e-05 ± 1.3e-05 s⁻¹

AUAAAAGCGCCAGAACUACAGAAAUGUAGUUGACGAGGAGGAGGUUGAUCGAAUUUUCGGCGGAUGCCUGCAAA
kcat (glucosamine-6-phosphate [1]): 0.000127 ± 1.9e-05 s⁻¹
self-cleavage kobs at 40 uM GlcN6P (glucosamine-6-phosphate [2]): 5.74e-05 ± 9e-06 s⁻¹
self-cleavage kobs at 160 uM GlcN6P (glucosamine-6-phosphate [3]): 0.000147 ± 2.1e-05 s⁻¹
self-cleavage kobs at 640 uM GlcN6P (glucosamine-6-phosphate [4]): 0.000101 ± 1.2e-05 s⁻¹
self-cleavage kobs at 2500 uM GlcN6P (glucosamine-6-phosphate [5]): 0.000138 ± 1.5e-05 s⁻¹

AUAAAAGCGCCAGAACUACAGAAAUGUAGUUGACGAGGAGGAGGUUUCUCGAAUUUUCGGCGGAUGCCUCCAAA
kcat (glucosamine-6-phosphate [1]): 0.000456 ± 3.9e-05 s⁻¹
KM (glucosamine-6-phosphate [7]): 2180 ± 390 µM
self-cleavage kobs at 160 uM GlcN6P (glucosamine-6-phosphate [3]): 2.69e-05 ± 2.4e-06 s⁻¹
self-cleavage kobs at 640 uM GlcN6P (glucosamine-6-phosphate [4]): 9.91e-05 ± 2.7e-06 s⁻¹
self-cleavage kobs at 2500 uM GlcN6P (glucosamine-6-phosphate [5]): 0.000279 ± 6.6e-06 s⁻¹
self-cleavage kobs at 10000 uM GlcN6P (glucosamine-6-phosphate [6]): 0.000362 ± 6.6e-06 s⁻¹

AUAAAAGCGCCAGAACUACAGAAAUGUAGUUGACGAGGAGGAGGUUGAUCGAAUUGUCGGCGGAUGCCUCCAAA
kcat (glucosamine-6-phosphate [1]): 0.00559 ± 0.00071 s⁻¹
KM (glucosamine-6-phosphate [7]): 1560 ± 280 µM
self-cleavage kobs at 40 uM GlcN6P (glucosamine-6-phosphate [2]): 0.000148 ± 2.2e-05 s⁻¹
self-cleavage kobs at 160 uM GlcN6P (glucosamine-6-phosphate [3]): 0.000523 ± 0.00015 s⁻¹
self-cleavage kobs at 640 uM GlcN6P (glucosamine-6-phosphate [4]): 0.00151 ± 0.00034 s⁻¹
self-cleavage kobs at 2500 uM GlcN6P (glucosamine-6-phosphate [5]): 0.00299 ± 0.00058 s⁻¹
self-cleavage kobs at 10000 uM GlcN6P (glucosamine-6-phosphate [6]): 0.00556 ± 0.00097 s⁻¹

AUAAAAGCGCCAGAACUACAGAAAUGUAGUUGACGAGGAGGAGGUUGAUCGAAUAUUCGGCGGAUGCCUCCAAA
kcat (glucosamine-6-phosphate [1]): 0.00811 ± 0.0025 s⁻¹
KM (glucosamine-6-phosphate [7]): 1410 ± 600 µM
self-cleavage kobs at 40 uM GlcN6P (glucosamine-6-phosphate [2]): 0.000281 ± 3.1e-05 s⁻¹
self-cleavage kobs at 160 uM GlcN6P (glucosamine-6-phosphate [3]): 0.000855 ± 0.00014 s⁻¹
self-cleavage kobs at 640 uM GlcN6P (glucosamine-6-phosphate [4]): 0.00187 ± 0.00028 s⁻¹
self-cleavage kobs at 2500 uM GlcN6P (glucosamine-6-phosphate [5]): 0.00514 ± 0.00081 s⁻¹
self-cleavage kobs at 10000 uM GlcN6P (glucosamine-6-phosphate [6]): 0.00878 ± 0.0013 s⁻¹

AUAAAAGCGCCAGAACUACAGAAAUGUAGUUGACGAGGAGGAGGUUGAUCGAAUUUUGGGCGGAUGCCUCCAAA
kcat (glucosamine-6-phosphate [1]): 0.000117 ± 5.4e-05 s⁻¹
self-cleavage kobs at 640 uM GlcN6P (glucosamine-6-phosphate [4]): 5.51e-05 ± 2.1e-05 s⁻¹
self-cleavage kobs at 2500 uM GlcN6P (glucosamine-6-phosphate [5]): 3.21e-05 ± 1.3e-05 s⁻¹
self-cleavage kobs at 10000 uM GlcN6P (glucosamine-6-phosphate [6]): 8.31e-05 ± 1.2e-05 s⁻¹

AUAAAAGCGCCAGAACUACAGAAAUGUAGUUGACGAGGAGGAGGUUGAUCGAAUUUUAGGCGGAUGCCUCCAAA
kcat (glucosamine-6-phosphate [1]): 0.000264 ± 4e-05 s⁻¹
KM (glucosamine-6-phosphate [7]): 2260 ± 690 µM
self-cleavage kobs at 640 uM GlcN6P (glucosamine-6-phosphate [4]): 5.5e-05 ± 1.2e-05 s⁻¹
self-cleavage kobs at 2500 uM GlcN6P (glucosamine-6-phosphate [5]): 0.000177 ± 4.2e-05 s⁻¹
self-cleavage kobs at 10000 uM GlcN6P (glucosamine-6-phosphate [6]): 0.000208 ± 3.2e-05 s⁻¹

AUAAAAGCGCCAGAACUACAGAAAUGUAGUUGACGAGGAGGAGGUUGUUCGAAUUUUCGGCGGAUGCCUCCAAA
kcat (glucosamine-6-phosphate [1]): 0.000199 ± 1.8e-05 s⁻¹
KM (glucosamine-6-phosphate [7]): 905 ± 230 µM
self-cleavage kobs at 160 uM GlcN6P (glucosamine-6-phosphate [3]): 3.01e-05 ± 1.4e-05 s⁻¹
self-cleavage kobs at 640 uM GlcN6P (glucosamine-6-phosphate [4]): 8.89e-05 ± 1.5e-05 s⁻¹
self-cleavage kobs at 2500 uM GlcN6P (glucosamine-6-phosphate [5]): 0.000128 ± 2e-05 s⁻¹
self-cleavage kobs at 10000 uM GlcN6P (glucosamine-6-phosphate [6]): 0.000196 ± 2.4e-05 s⁻¹

AUAAAAGCGCCAGAACUACAGAAAUGUAGUUGACGAGGAGGAGGUUGGUCGAAUUUUCGGCGGAUGCCUCCAAA
kcat (glucosamine-6-phosphate [1]): 8.61e-05 ± 8.6e-06 s⁻¹
self-cleavage kobs at 640 uM GlcN6P (glucosamine-6-phosphate [4]): 4.31e-05 ± 1.6e-05 s⁻¹
self-cleavage kobs at 2500 uM GlcN6P (glucosamine-6-phosphate [5]): 8.59e-05 ± 1.7e-05 s⁻¹
self-cleavage kobs at 10000 uM GlcN6P (glucosamine-6-phosphate [6]): 7.67e-05 ± 1.3e-05 s⁻¹

AUAAAAGCGCCAGAACUACAGAAAUGUAGUUGACGAGGAGGAGGUUGAUCGGAUUUUCGGCGGAUGCCUCCAAA
kcat (glucosamine-6-phosphate [1]): 0.000681 ± 0.00017 s⁻¹
KM (glucosamine-6-phosphate [7]): 1570 ± 620 µM
self-cleavage kobs at 160 uM GlcN6P (glucosamine-6-phosphate [3]): 8.74e-05 ± 1.5e-05 s⁻¹
self-cleavage kobs at 640 uM GlcN6P (glucosamine-6-phosphate [4]): 0.00017 ± 2.3e-05 s⁻¹
self-cleavage kobs at 2500 uM GlcN6P (glucosamine-6-phosphate [5]): 0.000443 ± 6.8e-05 s⁻¹
self-cleavage kobs at 10000 uM GlcN6P (glucosamine-6-phosphate [6]): 0.000619 ± 0.00013 s⁻¹

AUAAAAGCGCCAGAACUACAGAAAUGUAGUUGACGAGGAGGAGGUUGAUCGCAUUUUCGGCGGAUGCCUCCAAA
kcat (glucosamine-6-phosphate [1]): 1.4e-05 ± 1.8e-06 s⁻¹

AUAAAAGCGCCAGAACUACAGAAAUGUAGUUGACGAGGAGGAGGUUGAUCGAAUUUCCGGCGGAUGCCUCCAAA
kcat (glucosamine-6-phosphate [1]): 0.000206 ± 2.4e-05 s⁻¹
KM (glucosamine-6-phosphate [7]): 6430 ± 1500 µM
self-cleavage kobs at 2500 uM GlcN6P (glucosamine-6-phosphate [5]): 5.65e-05 ± 1.2e-05 s⁻¹
self-cleavage kobs at 10000 uM GlcN6P (glucosamine-6-phosphate [6]): 0.000126 ± 1.3e-05 s⁻¹

AUAAAAGCGCCAGAACUACAGAAAUGUAGUUGACGAGGAGGAGGUUGAUCGAAUUUACGGCGGAUGCCUCCAAA
kcat (glucosamine-6-phosphate [1]): 0.000141 ± 1.3e-05 s⁻¹
KM (glucosamine-6-phosphate [7]): 1670 ± 420 µM
self-cleavage kobs at 640 uM GlcN6P (glucosamine-6-phosphate [4]): 4.42e-05 ± 1.5e-05 s⁻¹
self-cleavage kobs at 2500 uM GlcN6P (glucosamine-6-phosphate [5]): 7.57e-05 ± 2.1e-05 s⁻¹
self-cleavage kobs at 10000 uM GlcN6P (glucosamine-6-phosphate [6]): 0.000125 ± 2.4e-05 s⁻¹
